In patent US20060229273A1:

Biological target: hKGF receptor on the surface of PC-3 prostatic carcinoma cells (UniProt P21802)
Test: saturation binding of 125I-hKGF on PC-3 cells, Scatchard analysis

B1: Recombinant human Keratinocyte Growth Factor (hKGF) (ligand, UniProt P21781 32-194, looked up)
chain: CNDMTPEQMATNVNCSSPERHTRSYDYMEGGDIRVRRLFCRTQWYLRIDKRGKVKGTQEMKNNYNIMEIRTVAVGIVAIKGVESEFYLAMNKEGKLYAKKECNEDCNFKELILENHYNTYASAKWTHNGGEMFVALNQKGIPVRGKKTKKEQKTAHFLPMAIT
specific hKGF binding sites per cell (sites per cell): 5000
